Target: Flag-NLS-Actin wt
Test: proximity ligation

Substance “endogenous BRM (from UniProt P51531 1-1590) (natural protein)” has a % PLA-positive cells (spread cells, high mechanical inputs) of 94.7%.

Reference: paper PMC7612964
